Target: T1, YTHDF3 (mouse, UniProt Q8BYK6 1-585)
T1 sequence: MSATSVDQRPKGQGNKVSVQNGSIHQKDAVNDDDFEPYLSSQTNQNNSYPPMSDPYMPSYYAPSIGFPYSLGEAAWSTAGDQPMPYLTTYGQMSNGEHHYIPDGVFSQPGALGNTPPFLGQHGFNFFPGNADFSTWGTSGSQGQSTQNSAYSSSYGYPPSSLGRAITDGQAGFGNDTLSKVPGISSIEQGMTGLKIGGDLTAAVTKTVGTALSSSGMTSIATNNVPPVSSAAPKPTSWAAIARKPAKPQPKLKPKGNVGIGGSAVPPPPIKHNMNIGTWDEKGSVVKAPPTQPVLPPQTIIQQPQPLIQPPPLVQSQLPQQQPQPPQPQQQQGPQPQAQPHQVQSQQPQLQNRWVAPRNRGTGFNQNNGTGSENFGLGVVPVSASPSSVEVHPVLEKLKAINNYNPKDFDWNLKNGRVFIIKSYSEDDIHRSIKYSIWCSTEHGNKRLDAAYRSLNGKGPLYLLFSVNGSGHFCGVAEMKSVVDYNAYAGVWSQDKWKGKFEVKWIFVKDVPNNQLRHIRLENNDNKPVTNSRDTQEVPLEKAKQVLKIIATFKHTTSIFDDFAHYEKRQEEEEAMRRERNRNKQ
Test: EMSA; LightShift Chemiluminescent RNA EMSA kit; 20 pmol RNA, 6 ug YTHDF3, room temperature 30 min; 6% TBE gel, 0.5x TBE; buffer salt and pH not stated
Details: protein: commercial; label: 5' biotin

B1: Foxo3-CDS-m6A-biotin-RNAProbe 1 (ssRNA)
RNA: GUGACUUGGACCUGGAC
modifications: m6A at A4, A10, A16 (from text sites 2151, 2158, 2163 nt; the modified probe line is not in the material)
  binding result: binds

Source: publication PMC9532426, “Autophagy induction promoted by m6A reader YTHDF3 through translation upregulation of FOXO3 mRNA”
